The values that follow come from US20190111032A1 (GEORGIA STATE UNIVERSITY RESEARCH FOUNDATION, published 2019).

The series concerns the molecule itself. Description: size exclusion chromatography and non-reducing SDS-PAGE. The protocol: hCaSR-ECD (from residue Tyr²⁰ to Phe⁶¹²) (FIG. 1) was expressed in suspension culture of HEK293S (GnTI-) cells and purified from the culture medium by Ni²⁺-NTA chromatography as previously described. To deglycosylate the purified protein, hCaSR-ECD was incubated with recombinant endoglycosidase F1 (Endo F1) at a 1:100 mass ratio of Endo F1 to hCaSR-ECD²⁶ overnight at 4° C. in 10 mM Tris buffer, pH 7.4. Further separation of hCaSR-ECD from Endo F1 was achieved by size exclusion chromatography (SEC) in 10 mM HEPES (pH 7.3) buffer. hCaSR-ECD forms a homodimer, as determined by the elution volume observed in SEC.
(In general: In gel filtration, larger molecules generally elute earlier.)

B1: extracellular domain of the human calcium-sensing receptor (hCaSR-ECD), residues Tyr20 to Phe612 (receptor, UniProt P41180 20-612, looked up)
chain: YGPDQRAQKKGDIILGGLFPIHFGVAAKDQDLKSRPESVECIRYNFRGFRWLQAMIFAIEEINSSPALLPNLTLGYRIFDTCNTVSKALEATLSFVAQNKIDSLNLDEFCNCSEHIPSTIAVVGATGSGVSTAVANLLGLFYIPQVSYASSSRLLSNKNQFKSFLRTIPNDEHQATAMADIIEYFRWNWVGTIAADDDYGRPGIEKFREEAEERDICIDFSELISQYSDEEEIQHVVEVIQNSTAKVIVVFSSGPDLEPLIKEIVRRNITGKIWLASEAWASSSLIAMPQYFHVVGGTIGFALKAGQIPGFREFLKKVHPRKSVHNGFAKEFWEETFNCHLQEGAKGPLPVDTFLRGHEESGDRFSNSSTAFRPLCTGDENISSVETPYIDYTHLRISYNVYLAVYSIAHALQDIYTCLPGRGLFTNGSCADIKKVEAWQVLKHLRHLNFTNNMGEQVTFDECGDLVGNYSIINWHLSPEDGSIVFKEVGYYNVYAKKGERLFINEEKILWSGFSREVPFSNCSRDCLAGTRKGIIEGEPTCCFECVECPDGEYSDETDASACNKCPDDFWSNENHTSCIAKEIEFLSWTEPF
modifications: N-glycans trimmed with endoglycosidase F1 before SEC and crystallization (expressed in HEK293S GnTI- cells)
notes: range 20-612; This entry is one protomer; also called ECD of CaSR
As to B1, the binding result is listed as “binds”.
